Consider 21 molecules from patent US20090291890A1 (published 2009).

Experiment [1] concerns the target Factor X (Homo sapiens (Human)) (UniProt P00742).
Experiment [2] addresses T1, Mesyl-dFPR-ACC.
T1 sequence (peptide, N-terminal mesyl; D-Phe at position 1 (dF); C-terminal ACC fluorophore): FPR

Substitutions are numbered along the chain they refer to. Numbers in names are those of the source. Where “and” joins values, the source holds several entries; their conditions need not be identical. Equal values may be shown once.

On to “Gla swap FIX/S52A/S60A/S222A/Q286R-FVIIa (enzyme)”, for which, in experiment [1], the kcat/KM (M^-1s^-1), TF-dependent assay worked out at 7.24e+07 M⁻¹ s⁻¹ and the kcat/KM, TF-independent assay turned out to be 2.9 M⁻¹ s⁻¹. For the same molecule, the Activity (µmol/sec/µmol), specific activity for mesyl-dFPR-ACC (µmol/sec/µmol) in experiment [2] was 0.44.

For the molecule S52A/S60A/Q286R-FVIIa (enzyme), in experiment [1], the kcat/KM (M^-1s^-1), TF-dependent assay was found to be 4.1e+07 M⁻¹ s⁻¹. This molecule also had an Activity (µmol/sec/µmol), specific activity for mesyl-dFPR-ACC (µmol/sec/µmol) in experiment [2] of 0.44.

On to “T128N/P129A/A175S/Q286R/M298Q-FVIIa (enzyme)”, for which the kcat/KM, TF-dependent assay in experiment [1] was found to be 7.21e+07 M⁻¹ s⁻¹. The same molecule registered an Activity (µmol/sec/µmol), specific activity for mesyl-dFPR-ACC (µmol/sec/µmol) in experiment [2] of 2.02.

As to T128N/P129A/S222A-FVIIa (enzyme), in experiment [1], the kcat/KM (M^-1s^-1), TF-dependent assay was 6.25e+07 M⁻¹ s⁻¹ and the kcat/KM, TF-independent assay was determined as 4.8 M⁻¹ s⁻¹. In experiment [2], the Activity (µmol/sec/µmol), specific activity for mesyl-dFPR-ACC (µmol/sec/µmol) is 2.7.

In the case of “Gla swap FIX/Q286R/S222A/H257S-FVIIa (enzyme)”, in experiment [1], the kcat/KM (M^-1s^-1), TF-dependent assay was determined as 8.53e+07 M⁻¹ s⁻¹. This molecule also displayed an Activity (µmol/sec/µmol), specific activity for mesyl-dFPR-ACC (µmol/sec/µmol) in experiment [2] of 0.49.

As for A122N/G124S/A175S/Q366V-FVIIa (enzyme), in experiment [1], the kcat/KM (M^-1s^-1), TF-dependent assay was 3.02e+07 M⁻¹ s⁻¹ and the kcat/KM, TF-independent assay turned out to be 3 M⁻¹ s⁻¹. The same molecule registered an Activity (µmol/sec/µmol), specific activity for mesyl-dFPR-ACC (µmol/sec/µmol) in experiment [2] of 2.34.

Regarding “T128N/P129A/V158D/E296V/M298Q-FVIIa (enzyme)”, in experiment [1], the kcat/KM (M^-1s^-1), TF-dependent assay was found to be 2.01e+08 M⁻¹ s⁻¹ and the kcat/KM, TF-independent assay turned out to be 1380 M⁻¹ s⁻¹. This molecule gave an Activity (µmol/sec/µmol), specific activity for mesyl-dFPR-ACC (µmol/sec/µmol) in experiment [2] of 3.26.

For “Gla swap FIX/T128N/P129A/S222A/Q286R-FVIIa (enzyme)”, in experiment [1], the kcat/KM (M^-1s^-1), TF-dependent assay was 1.47e+08 M⁻¹ s⁻¹ and 1.43e+08 M⁻¹ s⁻¹; the kcat/KM, TF-independent assay was 15.5 M⁻¹ s⁻¹ and 21.3 M⁻¹ s⁻¹. In experiment [2], the Activity (µmol/sec/µmol), specific activity for mesyl-dFPR-ACC (µmol/sec/µmol) came to 0.53.

In the case of S52A/S60A-FVIIa (enzyme), in experiment [1], the kcat/KM (M^-1s^-1), TF-dependent assay stood at 3.56e+07 M⁻¹ s⁻¹ and the kcat/KM, TF-independent assay is 3.8 M⁻¹ s⁻¹. In experiment [2], this molecule showed an Activity (µmol/sec/µmol), specific activity for mesyl-dFPR-ACC (µmol/sec/µmol) of 1.95.

B1: A122N/G124S-FVIIa (enzyme)
chain: ANAFLEELRPGSLERECKEEQCSFEEAREIFKDAERTKLFWISYSDGDQCASSPCQNGGSCKDQLQSYICFCLPAFEGRNCETHKDDQLICVNENGGCEQYCSDHTGTKRSCRCHEGYSLLNDSVSCTPTVEYPCGKIPILEKRNASKPQGRIVGGKVCPKGECPWQVLLLVNGAQLCGGTLINTIWVVSAAHCFDKIKNWRNLIAVLGEHDLSEHDGDEQSRRVAQVIIPSTYVPGTTNHDIALLRLHQPVVLTDHVVPLCLPERTFSERTLAFVRFSLVSGWGQLLDRGATALELMVLNVPRLMTQDCLQQSRKVGDSPNITEYMFCAGYSDGSKDSCKGDSGGPHATHYRGTWYLTGIVSWGQGCATVGHFGVYTRVSQYIEWLQKLMRSEPRPGVLLRAPFP
Regarding B1, in experiment [1], the kcat/KM (M^-1s^-1), TF-dependent assay came to 3.87e+07 M⁻¹ s⁻¹ and the kcat/KM, TF-independent assay is 3.4 M⁻¹ s⁻¹. Besides, the Activity (µmol/sec/µmol), specific activity for mesyl-dFPR-ACC (µmol/sec/µmol) in experiment [2] was determined as 2.24.

B2: H257S/Q286R/Q366V-FVIIa (enzyme)
chain: B1 chain with N122A, S124G, H257S, Q286R, Q366V
On to B2, for which, in experiment [1], the kcat/KM (M^-1s^-1), TF-dependent assay was 7.1e+07 M⁻¹ s⁻¹ and the kcat/KM, TF-independent assay is 7.7 M⁻¹ s⁻¹. In experiment [2], this molecule showed an Activity (µmol/sec/µmol), specific activity for mesyl-dFPR-ACC (µmol/sec/µmol) of 2.

B3: S52A/S60A/Q286R/H373F-FVIIa (enzyme)
chain: B1 chain with S52A, S60A, N122A, S124G, Q286R, H373F
As to B3, in experiment [1], the kcat/KM (M^-1s^-1), TF-dependent assay came to 9.44e+07 M⁻¹ s⁻¹ and the kcat/KM, TF-independent assay amounted to 30.1 M⁻¹ s⁻¹. This molecule registered an Activity (µmol/sec/µmol), specific activity for mesyl-dFPR-ACC (µmol/sec/µmol) in experiment [2] of 3.14.

B4: S222A/H257A/Q286R/Q366V-FVIIa (enzyme)
chain: B1 chain with N122A, S124G, S222A, H257A, Q286R, Q366V
Turning to B4, in experiment [1], the kcat/KM (M^-1s^-1), TF-dependent assay came out at 1e+08 M⁻¹ s⁻¹ and the kcat/KM, TF-independent assay stood at 12.5 M⁻¹ s⁻¹. The same molecule displayed an Activity (µmol/sec/µmol), specific activity for mesyl-dFPR-ACC (µmol/sec/µmol) in experiment [2] of 2.43.

B5: Q366V-FVIIa (enzyme)
chain: B1 chain with N122A, S124G, Q366V
For B5, in experiment [1], the kcat/KM (M^-1s^-1), TF-dependent assay came out at 5.48e+07 M⁻¹ s⁻¹ and the kcat/KM, TF-independent assay amounted to 4.3 M⁻¹ s⁻¹. The Activity (µmol/sec/µmol), specific activity for mesyl-dFPR-ACC (µmol/sec/µmol) in experiment [2] stood at 9.29.

B6: Q286R/M298Q/H373F-FVIIa (enzyme)
chain: B1 chain with N122A, S124G, Q286R, M298Q, H373F
For the molecule B6, in experiment [1], the kcat/KM (M^-1s^-1), TF-dependent assay was 1.36e+08 M⁻¹ s⁻¹ and the kcat/KM, TF-independent assay was found to be 115 M⁻¹ s⁻¹. Also, the Activity (µmol/sec/µmol), specific activity for mesyl-dFPR-ACC (µmol/sec/µmol) in experiment [2] amounted to 4.59.

B7: Q286R/H257A-FVIIa (enzyme)
chain: B1 chain with N122A, S124G, H257A, Q286R
Consider B7, for which the kcat/KM, TF-independent assay in experiment [1] was 4.3 M⁻¹ s⁻¹ and 2.5 M⁻¹ s⁻¹. In experiment [2], the Activity (µmol/sec/µmol), specific activity for mesyl-dFPR-ACC (µmol/sec/µmol) was found to be 1.96.

B8: H257S-FVIIa (enzyme)
chain: B1 chain with N122A, S124G, H257S
With B8, in experiment [1], the kcat/KM (M^-1s^-1), TF-dependent assay was 1.18e+08 M⁻¹ s⁻¹ and the kcat/KM, TF-independent assay was found to be 3.1 M⁻¹ s⁻¹. For the same molecule, the Activity (µmol/sec/µmol), specific activity for mesyl-dFPR-ACC (µmol/sec/µmol) in experiment [2] was found to be 2.64.

B9: M298Q/H373F-FVIIa (enzyme)
chain: B1 chain with N122A, S124G, M298Q, H373F
Regarding B9, in experiment [1], the kcat/KM (M^-1s^-1), TF-dependent assay stood at 7.21e+07 M⁻¹ s⁻¹ and the kcat/KM, TF-independent assay stood at 96.4 M⁻¹ s⁻¹. In addition, the Activity (µmol/sec/µmol), specific activity for mesyl-dFPR-ACC (µmol/sec/µmol) in experiment [2] amounted to 4.

B10: H373F-FVIIa (enzyme)
chain: B1 chain with N122A, S124G, H373F
Turning to B10, in experiment [1], the kcat/KM (M^-1s^-1), TF-dependent assay was 5.58e+07 M⁻¹ s⁻¹. In experiment [2], this molecule came in with an Activity (µmol/sec/µmol), specific activity for mesyl-dFPR-ACC (µmol/sec/µmol) of 1.17.

B11: Q286R/M298Q/Q366N-FVIIa (enzyme)
chain: B1 chain with N122A, S124G, Q286R, M298Q, Q366N
In the case of B11, in experiment [1], the kcat/KM (M^-1s^-1), TF-dependent assay came to 1.17e+08 M⁻¹ s⁻¹ and the kcat/KM, TF-independent assay stood at 65.9 M⁻¹ s⁻¹. Further, the Activity (µmol/sec/µmol), specific activity for mesyl-dFPR-ACC (µmol/sec/µmol) in experiment [2] stood at 2.35.

B12: Q286R/H373F-FVIIa (enzyme)
chain: B1 chain with N122A, S124G, Q286R, H373F
Turning to B12, in experiment [1], the kcat/KM (M^-1s^-1), TF-dependent assay turned out to be 9.01e+07 M⁻¹ s⁻¹ and the kcat/KM, TF-independent assay was found to be 81.6 M⁻¹ s⁻¹. The Activity (µmol/sec/µmol), specific activity for mesyl-dFPR-ACC (µmol/sec/µmol) in experiment [2] was determined as 0.78.
